Experimental data published in patent publication US20200087373A1 (UNIVERSITY OF COPENHAGEN, published 2020).
Ends that are not written are not given here. * marks the point of attachment. C16 diacid = O=C(O)CCCCCCCCCCCCCCC(=O)*

T1: human GIP receptor (human, UniProt P48546 22-466)
T1 sequence (looked up): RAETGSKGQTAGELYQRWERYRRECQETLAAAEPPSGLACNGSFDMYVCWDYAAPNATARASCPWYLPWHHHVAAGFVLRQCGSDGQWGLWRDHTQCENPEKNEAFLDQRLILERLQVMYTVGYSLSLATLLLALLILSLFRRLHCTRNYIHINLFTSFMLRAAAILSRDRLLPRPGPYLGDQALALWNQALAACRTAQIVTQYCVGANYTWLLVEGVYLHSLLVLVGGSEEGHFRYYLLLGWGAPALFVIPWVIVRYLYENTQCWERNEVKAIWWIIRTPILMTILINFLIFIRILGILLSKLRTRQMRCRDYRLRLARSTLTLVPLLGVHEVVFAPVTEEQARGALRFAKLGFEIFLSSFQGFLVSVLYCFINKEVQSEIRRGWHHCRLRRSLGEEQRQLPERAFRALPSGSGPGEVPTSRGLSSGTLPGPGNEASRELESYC


Biological target: T1, human GIP receptor
Experiment: cell-based or functional assay

Binder | cAMP antagonism, log (IC50) [log M] | cAMP antagonism, nM (IC50) [nM] | cAMP agonism, EC50 (log) [log M] | cAMP agonism, Emax [%] | cAMP agonism, nM (EC50) [nM]
EGTFISDYSIK(C16 diacid)MDKIHQQDFVNWLLAQK-NH2 (N-terminus assumed; SMILES CC[C@H](C)[C@H](NC(=O)[C@H](CCCCN)NC(=O)[C@H](CC(=O)O)NC(=O)[C@H](CCSC)NC(=O)[C@H](CCCCNC(=O)CCCCCCCCCCCCCCC(=O)O)NC(=O)[C@@H](NC(=O)[C@H](CO)NC(=O)[C@H](Cc1ccc(O)cc1)NC(=O)[C@H](CC(=O)O)NC(=O)[C@H](CO)NC(=O)[C@@H](NC(=O)[C@H](Cc1ccccc1)NC(=O)[C@@H](NC(=O)CNC(=O)[C@@H](N)CCC(=O)O)[C@@H](C)O)[C@@H](C)CC)[C@@H](C)CC)C(=O)N[C@@H](Cc1c[nH]cn1)C(=O)N[C@@H](CCC(N)=O)C(=O)N[C@@H](CCC(N)=O)C(=O)N[C@@H](CC(=O)O)C(=O)N[C@@H](Cc1ccccc1)C(=O)N[C@H](C(=O)N[C@@H](CC(N)=O)C(=O)N[C@@H](Cc1c[nH]c2ccccc12)C(=O)N[C@@H](CC(C)C)C(=O)N[C@@H](CC(C)C)C(=O)N[C@@H](C)C(=O)N[C@@H](CCC(N)=O)C(=O)N[C@@H](CCCCN)C(N)=O)C(C)C) [AT304 [hGIP(3-30)NH2[A13K]-C16diacid/13]] | -6.7 | 199 | – | – | –
EGTFISK(C16 diacid)YSIAMDKIHQQDFVNWLLAQK-NH2 (N-terminus assumed; SMILES CC[C@H](C)[C@H](NC(=O)[C@H](CO)NC(=O)[C@H](Cc1ccc(O)cc1)NC(=O)[C@H](CCCCNC(=O)CCCCCCCCCCCCCCC(=O)O)NC(=O)[C@H](CO)NC(=O)[C@@H](NC(=O)[C@H](Cc1ccccc1)NC(=O)[C@@H](NC(=O)CNC(=O)[C@@H](N)CCC(=O)O)[C@@H](C)O)[C@@H](C)CC)C(=O)N[C@@H](C)C(=O)N[C@@H](CCSC)C(=O)N[C@@H](CC(=O)O)C(=O)N[C@@H](CCCCN)C(=O)N[C@H](C(=O)N[C@@H](Cc1c[nH]cn1)C(=O)N[C@@H](CCC(N)=O)C(=O)N[C@@H](CCC(N)=O)C(=O)N[C@@H](CC(=O)O)C(=O)N[C@@H](Cc1ccccc1)C(=O)N[C@H](C(=O)N[C@@H](CC(N)=O)C(=O)N[C@@H](Cc1c[nH]c2ccccc12)C(=O)N[C@@H](CC(C)C)C(=O)N[C@@H](CC(C)C)C(=O)N[C@@H](C)C(=O)N[C@@H](CCC(N)=O)C(=O)N[C@@H](CCCCN)C(N)=O)C(C)C)[C@@H](C)CC) [AT300 [hGIP(3-30)NH2[D9K]-C16diacid/9]] | -7.7 | 22 | – | – | –
EGTFISDYK(C16 diacid)IAMDKIHQQDFVNWLLAQK-NH2 (N-terminus assumed; SMILES CC[C@H](C)[C@H](NC(=O)[C@H](CCCCNC(=O)CCCCCCCCCCCCCCC(=O)O)NC(=O)[C@H](Cc1ccc(O)cc1)NC(=O)[C@H](CC(=O)O)NC(=O)[C@H](CO)NC(=O)[C@@H](NC(=O)[C@H](Cc1ccccc1)NC(=O)[C@@H](NC(=O)CNC(=O)[C@@H](N)CCC(=O)O)[C@@H](C)O)[C@@H](C)CC)C(=O)N[C@@H](C)C(=O)N[C@@H](CCSC)C(=O)N[C@@H](CC(=O)O)C(=O)N[C@@H](CCCCN)C(=O)N[C@H](C(=O)N[C@@H](Cc1c[nH]cn1)C(=O)N[C@@H](CCC(N)=O)C(=O)N[C@@H](CCC(N)=O)C(=O)N[C@@H](CC(=O)O)C(=O)N[C@@H](Cc1ccccc1)C(=O)N[C@H](C(=O)N[C@@H](CC(N)=O)C(=O)N[C@@H](Cc1c[nH]c2ccccc12)C(=O)N[C@@H](CC(C)C)C(=O)N[C@@H](CC(C)C)C(=O)N[C@@H](C)C(=O)N[C@@H](CCC(N)=O)C(=O)N[C@@H](CCCCN)C(N)=O)C(C)C)[C@@H](C)CC) [AT302 [hGIP(3-30)NH2[S11K]-C16diacid/11]] | -7.2 | 69 | – | – | –
EGTFISDK(C16 diacid)SIAMDKIHQQDFVNWLLAQK-NH2 (N-terminus assumed; SMILES CC[C@H](C)[C@H](NC(=O)[C@H](CO)NC(=O)[C@H](CCCCNC(=O)CCCCCCCCCCCCCCC(=O)O)NC(=O)[C@H](CC(=O)O)NC(=O)[C@H](CO)NC(=O)[C@@H](NC(=O)[C@H](Cc1ccccc1)NC(=O)[C@@H](NC(=O)CNC(=O)[C@@H](N)CCC(=O)O)[C@@H](C)O)[C@@H](C)CC)C(=O)N[C@@H](C)C(=O)N[C@@H](CCSC)C(=O)N[C@@H](CC(=O)O)C(=O)N[C@@H](CCCCN)C(=O)N[C@H](C(=O)N[C@@H](Cc1c[nH]cn1)C(=O)N[C@@H](CCC(N)=O)C(=O)N[C@@H](CCC(N)=O)C(=O)N[C@@H](CC(=O)O)C(=O)N[C@@H](Cc1ccccc1)C(=O)N[C@H](C(=O)N[C@@H](CC(N)=O)C(=O)N[C@@H](Cc1c[nH]c2ccccc12)C(=O)N[C@@H](CC(C)C)C(=O)N[C@@H](CC(C)C)C(=O)N[C@@H](C)C(=O)N[C@@H](CCC(N)=O)C(=O)N[C@@H](CCCCN)C(N)=O)C(C)C)[C@@H](C)CC) [AT301 [hGIP(3-30)NH2[Y10K]-C16diacid/10]] | -6.8 | 163 | -7.9 | 8.5 | 12
EGTFISDYSK(C16 diacid)AMDKIHQQDFVNWLLAQK-NH2 (N-terminus assumed; SMILES CC[C@H](C)[C@H](NC(=O)[C@H](CCCCN)NC(=O)[C@H](CC(=O)O)NC(=O)[C@H](CCSC)NC(=O)[C@H](C)NC(=O)[C@H](CCCCNC(=O)CCCCCCCCCCCCCCC(=O)O)NC(=O)[C@H](CO)NC(=O)[C@H](Cc1ccc(O)cc1)NC(=O)[C@H](CC(=O)O)NC(=O)[C@H](CO)NC(=O)[C@@H](NC(=O)[C@H](Cc1ccccc1)NC(=O)[C@@H](NC(=O)CNC(=O)[C@@H](N)CCC(=O)O)[C@@H](C)O)[C@@H](C)CC)C(=O)N[C@@H](Cc1c[nH]cn1)C(=O)N[C@@H](CCC(N)=O)C(=O)N[C@@H](CCC(N)=O)C(=O)N[C@@H](CC(=O)O)C(=O)N[C@@H](Cc1ccccc1)C(=O)N[C@H](C(=O)N[C@@H](CC(N)=O)C(=O)N[C@@H](Cc1c[nH]c2ccccc12)C(=O)N[C@@H](CC(C)C)C(=O)N[C@@H](CC(C)C)C(=O)N[C@@H](C)C(=O)N[C@@H](CCC(N)=O)C(=O)N[C@@H](CCCCN)C(N)=O)C(C)C) [AT303 [hGIP(3-30)NH2[I12K]-C16diacid/12]] | -7 | 90 | -7.6 | 24.2 | 28
EGTFIK(C16 diacid)DYSIAMDKIHQQDFVNWLLAQK-NH2 (N-terminus assumed; SMILES CC[C@H](C)[C@H](NC(=O)[C@H](CO)NC(=O)[C@H](Cc1ccc(O)cc1)NC(=O)[C@H](CC(=O)O)NC(=O)[C@H](CCCCNC(=O)CCCCCCCCCCCCCCC(=O)O)NC(=O)[C@@H](NC(=O)[C@H](Cc1ccccc1)NC(=O)[C@@H](NC(=O)CNC(=O)[C@@H](N)CCC(=O)O)[C@@H](C)O)[C@@H](C)CC)C(=O)N[C@@H](C)C(=O)N[C@@H](CCSC)C(=O)N[C@@H](CC(=O)O)C(=O)N[C@@H](CCCCN)C(=O)N[C@H](C(=O)N[C@@H](Cc1c[nH]cn1)C(=O)N[C@@H](CCC(N)=O)C(=O)N[C@@H](CCC(N)=O)C(=O)N[C@@H](CC(=O)O)C(=O)N[C@@H](Cc1ccccc1)C(=O)N[C@H](C(=O)N[C@@H](CC(N)=O)C(=O)N[C@@H](Cc1c[nH]c2ccccc12)C(=O)N[C@@H](CC(C)C)C(=O)N[C@@H](CC(C)C)C(=O)N[C@@H](C)C(=O)N[C@@H](CCC(N)=O)C(=O)N[C@@H](CCCCN)C(N)=O)C(C)C)[C@@H](C)CC) [AT299 [hGIP(3-30)NH2[S8K]-C16diacid/8]] | -6.7 | 199 | -7.8 | 15.2 | 15
EGTFISDYSIAK(C16 diacid)DKIHQQDFVNWLLAQK-NH2 (N-terminus assumed; SMILES CC[C@H](C)[C@H](NC(=O)[C@H](CO)NC(=O)[C@H](Cc1ccc(O)cc1)NC(=O)[C@H](CC(=O)O)NC(=O)[C@H](CO)NC(=O)[C@@H](NC(=O)[C@H](Cc1ccccc1)NC(=O)[C@@H](NC(=O)CNC(=O)[C@@H](N)CCC(=O)O)[C@@H](C)O)[C@@H](C)CC)C(=O)N[C@@H](C)C(=O)N[C@@H](CCCCNC(=O)CCCCCCCCCCCCCCC(=O)O)C(=O)N[C@@H](CC(=O)O)C(=O)N[C@@H](CCCCN)C(=O)N[C@H](C(=O)N[C@@H](Cc1c[nH]cn1)C(=O)N[C@@H](CCC(N)=O)C(=O)N[C@@H](CCC(N)=O)C(=O)N[C@@H](CC(=O)O)C(=O)N[C@@H](Cc1ccccc1)C(=O)N[C@H](C(=O)N[C@@H](CC(N)=O)C(=O)N[C@@H](Cc1c[nH]c2ccccc12)C(=O)N[C@@H](CC(C)C)C(=O)N[C@@H](CC(C)C)C(=O)N[C@@H](C)C(=O)N[C@@H](CCC(N)=O)C(=O)N[C@@H](CCCCN)C(N)=O)C(C)C)[C@@H](C)CC) [AT305 [hGIP(3-30)NH2[M14K]-C16diacid/14]] | -6.8 | 166 | -8.1 | 12 | 8
